# Laboratory results published in paper PMC9076019, “HSP90 N‐terminal inhibitors target oncoprotein MORC2 for autophagic degradation and suppress MORC2‐driven breast cancer progression” (Clinical and Translational Medicine, 2022).
# B1: Full-length Flag-MORC2 (natural protein, human, UniProt Q9Y6X9-1 1-1032, looked up)
# chain: MAFTNYSSLNRAQLTFEYLHTNSTTHEFLFGALAELVDNARDADATRIDIYAERREDLRGGFMLCFLDDGAGMDPSDAASVIQFGKSAKRTPESTQIGQYGNGLKSGSMRIGKDFILFTKKEDTMTCLFLSRTFHEEEGIDEVIVPLPTWNARTREPVTDNVEKFAIETELIYKYSPFRTEEEVMTQFMKIPGDSGTLVIIFNLKLMDNGEPELDIISNPRDIQMAETSPEGTKPERRSFRAYAAVLYIDPRMRIFIHGHKVQTKRLSCCLYKPRMYKYTSSRFKTRAEQEVKKAEHVARIAEEKAREAESKARTLEVRLGGDLTRDSRVMLRQVQNRAITLRREADVKKRIKEAKQRALKEPKELNFVFGVNIEHRDLDGMFIYNCSRLIKMYEKVGPQLEGGMACGGVVGVVDVPYLVLEPTHNKQDFADAKEYRHLLRAMGEHLAQYWKDIAIAQRGIIKFWDEFGYLSANWNQPPSSELRYKRRRAMEIPTTIQCDLCLKWRTLPFQLSSVEKDYPDTWVCSMNPDPEQDRCEASEQKQKVPLGTFRKDMKTQEEKQKQLTEKIRQQQEKLEALQKTTPIRSQADLKKLPLEVTTRPSTEEPVRRPQRPRSPPLPAVIRNAPSRPPSLPTPRPASQPRKAPVISSTPKLPALAAREEASTSRLLQPPEAPRKPANTLVKTASRPAPLVQQLSPSLLPNSKSPREVPSPKVIKTPVVKKTESPIKLSPATPSRKRSVAVSDEEEVEEEAERRKERCKRGRFVVKEEKKDSNELSDSAGEEDSADLKRAQKDKGLHVEVRVNREWYTGRVTAVEVGKHVVRWKVKFDYVPTDTTPRDRWVEKGSEDVRLMKPPSPEHQSLDTQQEGGEEEVGPVAQQAIAVAEPSTSECLRIEPDTTALSTNHETIDLLVQILRNCLRYFLPPSFPISKKQLSAMNSDELISFPLKEYFKQYEVGLQNLCNSYQSRADSRAKASEESLRTSERKLRETEEKLQKLRTNIVALLQKVQEDIDINTDDELDAYIEDLITKGD
# notes: MORC2, human, full length (residues 1-1032); source: HEK293T, transfected, in cytosolic and nuclear fractions
# B2: MORC family CW-type zinc finger 2 (MORC2) (natural protein, human (endogenous in MCF-7 and T47D), UniProt Q9Y6X9 1-1032, looked up)
# chain: B1 chain
# notes: MORC2, human, endogenous in breast cancer cells; source: endogenous, MCF-7 and T47D lysates
# Legend:
# [1] = target: the molecule itself; assay: cross-linking; nuclear fraction of HEK293T cells transfected with Flag-MORC2 (48 h); chemical cross-linking with 0.05% glutaraldehyde on ice for 5 min; immunoblotting
# [2] = target: the molecule itself; assay: cross-linking; endogenous MORC2; total lysates (NP40 buffer) of MCF-7 and T47D cells treated with DMSO, 1 μM 17-AAG, AUY922, STA-9090 or 10 μM NB for 12 h; 0.05% glutaraldehyde on ice for 5 min; immunoblotting
Protein,stoichiometry N [1],stoichiometry N [2]
B1,2,
B2,,2
